{"source": "patent US20250186614A1", "about": "“COMPACT DRUG RESPONSIVE DOMAINS FOR REGULATION OF FUNCTION/ABUNDANCE AND DELIVERY OF POLYPEPTIDE PAYLOADS” (OBSIDIAN THERAPEUTICS, INC., priority 2022, published 2025)", "molecules": {"B1": {"name": "FKBP-085: FKBP13 trunc1WT DRD Q72R, Q84E, A117H; SEQ ID NO: 35 (protein)", "chain": "CPIKSRKGDVLHMHYTGKLEDGTEFDSSLPRNQPFVFSLGTGEVIKGWDQGLLGMCEGEKRKLVIPSELGYGERGHPPKIPGGATLVFEVELLKIER", "modifications": "truncated (trunc1); Description of sequence: FKBP13-AcGFP-mCherry Fusion; Construct Name: FKBP-085; FKBP13 DRD in Construct : FKBP13 trunc1WT (mutated to match FKBP12 active site Q72R Q84E A117H) (DRD - WT)"}, "B2": {"name": "FKBP-062: FKBP13 DRD Q72R, Q84E, A117H, M54A, [−]disulfide; SEQ ID NO: 18 (protein)", "chain": "HSPIKSRKGDVLHAHYTGKLEDGTEFDSSLPRNQPFVFSLGTGEVIKGWDQGLLGMSEGEKRKLVIPSELGYGERGHPPKIPGGATLVFEVELLKIER", "modifications": "disulfide removed; Description of sequence: FKBP13-AcGFP-mCherry Fusion; Construct Name: FKBP-062; FKBP13 DRD in Construct : FKBP13 (mutated to match FKBP12 active site - Q72R Q84E A117H) (DRD - M54A [-]disulfide)"}, "B3": {"name": "FKBP-058: FKBP13 DRD Q72R, Q84E, A117H, L52A; SEQ ID NO: 14 (protein)", "chain": "B2 chain with S2C, L12A, A14M, S57C", "modifications": "Description of sequence: FKBP13-AcGFP-mCherry Fusion; Construct Name: FKBP-058; FKBP13 DRD in Construct : FKBP13 (mutated to match FKBP12 active site - Q72R Q84E A117H) (DRD - L52A)"}, "B4": {"name": "FKBP-056: FKBP13 DRD Q72R, Q84E, A117H, F129K; SEQ ID NO: 12 (protein)", "chain": "B2 chain with S2C, A14M, S57C, F89K", "modifications": "Description of sequence: FKBP13-AcGFP-mCherry Fusion; Construct Name: FKBP-056; FKBP13 DRD in Construct : FKBP13 (mutated to match FKBP12 active site - Q72R Q84E A117H) (DRD - F129K)"}, "B5": {"name": "FKBP-064: FKBP13 DRD Q72R, Q84E, A117H, R102L; SEQ ID NO: 20 (protein)", "chain": "B2 chain with S2C, A14M, S57C, R62L", "modifications": "Description of sequence: FKBP13-AcGFP-mCherry Fusion; Construct Name: FKBP-064; FKBP13 DRD in Construct : FKBP13 (mutated to match FKBP12 active site - Q72R Q84E A117H) (DRD - R102L)"}, "B6": {"name": "FKBP-061: FKBP13 DRD Q72R, Q84E, A117H, L133A; SEQ ID NO: 17 (protein)", "chain": "B2 chain with S2C, A14M, S57C, L93A", "modifications": "Description of sequence: FKBP13-AcGFP-mCherry Fusion; Construct Name: FKBP-061; FKBP13 DRD in Construct : FKBP13 (mutated to match FKBP12 active site - Q72R Q84E A117H) (DRD - L133A)"}, "B7": {"name": "FKBP-263: based on FKBP-215 removing the M54A mutation (protein)", "chain": "B2 chain with S2C, P3R, A14M, E44G, V45R, S57C, H77W, K95Y", "modifications": "Description of sequence: Construct Name: FKBP-263; Mutation(s): Q72R Q84G A117W V85R DRD P43R K135Y", "notes": "based on FKBP-215 removing the M54A mutation"}, "B8": {"name": "FKBP-057: FKBP13 DRD Q72R, Q84E, A117H, I106A; SEQ ID NO: 13 (protein)", "chain": "B2 chain with S2C, A14M, S57C, I66A", "modifications": "Description of sequence: FKBP13-AcGFP-mCherry Fusion; Construct Name: FKBP-057; FKBP13 DRD in Construct : FKBP13 (mutated to match FKBP12 active site - Q72R Q84E A117H) (DRD - I106A)"}, "B9": {"name": "FKBP-053: FKBP13 DRD Q72R, Q84E, A117H, D90G, F66H; SEQ ID NO: 9 (protein)", "chain": "B2 chain with S2C, A14M, F26H, D50G, S57C", "modifications": "Description of sequence: FKBP13-AcGFP-mCherry Fusion; Construct Name: FKBP-053; FKBP13 DRD in Construct : FKBP13 (mutated to match FKBP12 active site - Q72R Q84E A117H) (DRD - D90G F66H)"}, "B10": {"name": "FKBP-054: FKBP13 DRD Q72R, Q84E, A117H, D90G, L127K; SEQ ID NO: 10 (protein)", "chain": "B2 chain with S2C, A14M, D50G, S57C, L87K", "modifications": "Description of sequence: FKBP13-AcGFP-mCherry Fusion; Construct Name: FKBP-054; FKBP13 DRD in Construct : FKBP13 (mutated to match FKBP12 active site - Q72R Q84E A117H) (DRD - D90G L127K)"}, "B11": {"name": "FKBP-060: FKBP13 DRD Q72R, Q84E, A117H, L104A; SEQ ID NO: 16 (protein)", "chain": "B2 chain with S2C, A14M, S57C, L64A", "modifications": "Description of sequence: FKBP13-AcGFP-mCherry Fusion; Construct Name: FKBP-060; FKBP13 DRD in Construct : FKBP13 (mutated to match FKBP12 active site - Q72R Q84E A117H) (DRD - L104A)"}, "B12": {"name": "FKBP-272: constructed from FKBP-195 by changing the K135Y mutation to K135L (protein)", "chain": "B2 chain with S2C, A14M, V45R, S57C, H77W, K95L", "modifications": "Description of sequence: Construct Name: FKBP-272; Mutation(s): Q72R Q84E A117W V85R DRD K135L", "notes": "constructed from FKBP-195 by changing the K135Y mutation to K135L"}, "B13": {"name": "FKBP-063: FKBP13 DRD Q72R, Q84E, A117H, M54A, C42S; SEQ ID NO: 19 (protein)", "chain": "B2 chain with S57C", "modifications": "Description of sequence: FKBP13-AcGFP-mCherry Fusion; Construct Name: FKBP-063; FKBP13 DRD in Construct : FKBP13 (mutated to match FKBP12 active site - Q72R Q84E A117H) (DRD - M54A C42S )"}, "B14": {"name": "FKBP-059: FKBP13 DRD Q72R, Q84E, A117H, L93A; SEQ ID NO: 15 (protein)", "chain": "B2 chain with S2C, A14M, L53A, S57C", "modifications": "Description of sequence: FKBP13-AcGFP-mCherry Fusion; Construct Name: FKBP-059; FKBP13 DRD in Construct : FKBP13 (mutated to match FKBP12 active site - Q72R Q84E A117H) (DRD - L93A)"}, "B15": {"name": "FKBP-055: FKBP13 DRD Q72R, Q84E, A117H, F78V; SEQ ID NO: 11 (protein)", "chain": "B2 chain with S2C, A14M, F38V, S57C", "modifications": "Description of sequence: FKBP13-AcGFP-mCherry Fusion; Construct Name: FKBP-055; FKBP13 DRD in Construct : FKBP13 mutated to match FKBP12 active site - (Q72R Q84E A117H) (DRD - F78V)"}}, "system": "Jurkat cells", "assay": "Tacrolimus dose response of FKBP13-AcGFP-mCherry constructs stably transduced into Jurkat cells, GFP MFI by flow cytometry", "assay_type": "cell-based", "design": "Basal: unit not given here", "conditions": "for DRD function after abrogating the disulfide bonds: FIG. 4; for basal AcGFP expression: absence of tacrolimus", "procedure": "The regulation of AcGFP, from FKBP13-AcGFP-mCherry constructs, in Jurkat cells, was also studied. Jurkat Clone E6-1 cells were cultured in standard media (RPMI+GlutaMAX Supplement (Life Technologies, Carlsbad, CA Cat #61870127), Fetal Bovine Serum (FBS) (Life Technologies Cat #10-082-147)). Jurkat cells were transduced with lentivirus produced with each of FKBP-039, FKBP-040, FKBP-041, FKBP-042, FKBP-043, FKBP-044, or FKBP-045 constructs. Jurkat cells were transduced until they were 10-25% positive, as determined on day 5 post-transduction, by using mCherry as a transduction marker. […] The Geometric Mean Fluorescent Intensity (MFI) of GFP expression in mCherry+ cells was plotted and dose response curve fits were performed using Prism Software (San Diego, CA).\nFKBP-091 was used as a comparative construct.\nFIGS. 22-38 show the results of characterization of FKBP-160-292. […] FKBP-091 and FKBP-117 was used as a comparative control for FKBP-160-FKBP-255. FKBP-195 was used as a comparative control for FKBP-256-FKBP-275. FKBP-117, FPBP-195 and FKBP-251 were used as a comparative control for FKBP-276-FKBP-292.\nFKBP mutants were cloned in a manner to make a fusion protein with AcGFP in order to assess FKBP mutant regulation by using AcGFP expression as a readout. […] Further iterative FKBP mutants (FKBP-256-FKBP-292) were constructed from these initial combinatorial mutants to see if we could further improve FKBP DRD properties.", "key": {"[1]": {"conditions": "tacrolimus dose response, Jurkat cells stably transduced (FIG. 10), Table 5"}, "[2]": {"conditions": "tacrolimus dose response, Jurkat cells stably transduced (FIG. 4), Table 4"}, "[3]": {"conditions": "tacrolimus, Jurkat cells, Table 13"}}, "note": "Substitutions are numbered along the chain they refer to. In names and notes the source's numbering stands."}
{"molecule": "B1", "values": [{"measurement": "Fold Change", "setting": "[1]", "value": 16.09}]}
{"molecule": "B2", "values": [{"measurement": "DRD function after abrogating the disulfide bonds", "setting": "tacrolimus dose response", "value": "did not create a significant difference in DRD function"}, {"measurement": "Fold Change", "setting": "[2]", "value": 10.4}]}
{"molecule": "B3", "values": [{"measurement": "Fold Change", "setting": "[2]", "value": 8.1}]}
{"molecule": "B4", "values": [{"measurement": "Fold Change", "setting": "[2]", "value": 1.0}]}
{"molecule": "B5", "values": [{"measurement": "Fold Change", "setting": "[2]", "value": 21.6}]}
{"molecule": "B6", "values": [{"measurement": "Fold Change", "setting": "[2]", "value": 16.6}]}
{"molecule": "B7", "values": [{"measurement": "Basal", "setting": "FIG. 49, BR1 (Biorep 1)", "value": 56}, {"measurement": "FC", "setting": "FIG. 49, BR1 (Biorep 1)", "value": 49.02}, {"measurement": "At 10 uM", "setting": "FIG. 49, BR1 (Biorep 1)", "value": 2745}, {"measurement": "Basal", "setting": "FIG. 49, BR2 (Biorep 2)", "value": 63.3}, {"measurement": "FC", "setting": "FIG. 49, BR2 (Biorep 2)", "value": 45.75}, {"measurement": "At 10 uM", "setting": "FIG. 49, BR2 (Biorep 2)", "value": 2896}, {"measurement": "basal AcGFP expression", "value": "retained the low basal AcGFP expression"}, {"measurement": "FC", "setting": "tacrolimus, FIGS. 31 and 32", "value": 56}, {"measurement": "Fold Change", "setting": "[3]", "value": 56}]}
{"molecule": "B8", "values": [{"measurement": "Fold Change", "setting": "[2]", "value": 2.7}]}
{"molecule": "B9", "values": [{"measurement": "Fold Change", "setting": "[2]", "value": 1.0}]}
{"molecule": "B10", "values": [{"measurement": "Fold Change", "setting": "[2]", "value": 0.9}]}
{"molecule": "B11", "values": [{"measurement": "Fold Change", "setting": "[2]", "value": 2.7}]}
{"molecule": "B12", "values": [{"measurement": "Basal", "setting": "FIG. 39", "value": 71.5}, {"measurement": "FC", "setting": "FIG. 39", "value": 85}, {"measurement": "Peak", "setting": "FIG. 39", "value": 5857}, {"measurement": "Basal", "setting": "FIG. 50", "value": 55.6}, {"measurement": "FC", "setting": "FIG. 50", "value": 105.86}, {"measurement": "At 10 uM", "setting": "FIG. 50", "value": 5886}, {"measurement": "basal AcGFP expression", "value": "lower basal AcGFP expression"}, {"measurement": "Fold Change", "setting": "[3]", "value": 105.86}]}
{"molecule": "B13", "values": [{"measurement": "DRD function after abrogating the disulfide bonds", "setting": "tacrolimus dose response", "value": "did not create a significant difference in DRD function"}, {"measurement": "Fold Change", "setting": "[2]", "value": 7.3}]}
{"molecule": "B14", "values": [{"measurement": "Fold Change", "setting": "[2]", "value": 27.3}, {"measurement": "Fold Change", "setting": "[1]", "value": 31.085}]}
{"molecule": "B15", "values": [{"measurement": "Fold Change", "setting": "[2]", "value": 9.0}]}
